± gives the uncertainty stated by the source.
Assay: amyloid nucleation score (Sup35N fusion, yeast selection) (log enrichment); library NNK1; higher = more nucleation; inactive = no reads after selection
Method in brief: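 Random libraries were run with three technical output replicates. In each, psi-negative yeast expressing Sup35N fused to peptides of 20 random codons were induced 24 hours with 100 μM copper sulfate and grown 7 days at 30°C on medium lacking adenine and uracil, and input and output plasmid inserts were Illumina-sequenced. The nucleation score is the DiMSum log enrichment of output over input reads, centred on the mode score of non-aggregating sequences, and sequences under 100 input reads were excluded.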

Row | Substance | amyloid nucleation score
1 | RVLATKRRLQKRLHESVLLA | 0.34 ± 1.1
2 | RVLRVFLGDTLFYCQSGSGL | 1.84 ± 0.22
3 | RVLSVIVNILIARFT | -0.028 ± 0.25
4 | RVMFACF | 0.15 ± 0.37
5 | RVNIV | -0.624 ± 0.48
6 | RVNMWRYI | 0.295 ± 0.4
7 | RVNYDVLVHLMPGLWVRTRL | 0.372 ± 1.4
8 | RVQFRKSTVSISYQNGFCTQ | 2.73 ± 0.086
9 | RVSKFPKSFNVSFKADNKIH | 4.02 ± 0.06
10 | RVSPFISNTFVVNSKETHGV | 4.56 ± 0.056
11 | RVYILFRHLVYSGGKFSVFI | inactive
12 | RVYISMM | -1.41 ± 1.7
13 | RVYLFNYICGGLDFFLRPTV | 5.37 ± 0.081
14 | RWCLSTRKFSWR | 0.305 ± 0.42
15 | RWFDYDESESVKSVHLNLVR | -1.37 ± 0.89
16 | RWGLRQIMVVENFIHRWVCP | 1.04 ± 0.79
17 | RWPTRNFQGTVRYAR | -0.62 ± 0.7
18 | RWSETR | 0.998 ± 0.48
19 | RWSFSSTY | 3.69 ± 0.085
20 | RWSWTVIMSMEADGCFRLHL | 1.68 ± 0.28
21 | RYAISYNLRVVGLISMYRNT | 0.655 ± 0.29
22 | RYDAWCYGWGVMMLHKFIG | -0.012 ± 0.64
23 | RYHRTGCLGILWLSLSHRLS | 0.418 ± 0.59
24 | RYHRWFRVRSSENRWGIC | -0.51 ± 0.93
25 | RYHTVYGIYGRLWGWFMKFD | -0.159 ± 0.33

Row | Substance | amyloid nucleation score
26 | RYIRLRMFLCLFYLMCLPRR | -1.25 ± 0.75
27 | RYIVVG | 0.106 ± 0.24
28 | RYPSLLWIFDFNYLLYLRFQ | -0.451 ± 0.25
29 | RYSLYQSEWVGKSMRDLTAR | 1.03 ± 0.62
30 | RYTFVITVYKIDDSSEMSWV | 0.82 ± 0.25
31 | RYTRSGLIDMFTNSSTDAHS | 0.115 ± 0.43
32 | RYWCCSPVRSLVHGRHCEV | 1.52 ± 0.24
33 | RYYGLFVYVARIYSALRSCK | -0.104 ± 0.33
34 | SAAPRFCSYSSFFALSNLSI | 0.615 ± 0.3
35 | SAASPFFFSDCGWPSGILNY | 1.26 ± 0.67
36 | SAHSDPQMRKNSLTYGNDLI | -0.116 ± 0.42
37 | SAPENSWGAWLDYGELEVGW | 0.016 ± 0.35
38 | SASSMVFNTTSPT | -0.404 ± 0.51
39 | SASVAHLCDYVVENI | 0.018 ± 0.54
40 | SASWGRYGERLHCDQRYFII | inactive
41 | SAVGYISLLYNSWAKYTICN | -0.562 ± 0.69
42 | SCAWRYNICTLISVRWVCK | 0.756 ± 0.34
43 | SCCWVSIDSNQCHRACTVRT | -0.136 ± 0.56
44 | SCEFLCVRHVLCHHLSLNVS | 0.296 ± 1.4
45 | SCGNLIVRPLVGVCHAWNEE | 0.489 ± 0.46
46 | SCGWDLVCGMMAVHSSGIVL | 0.975 ± 0.42
47 | SCHYDQPDQKLLASQSLL | -1.02 ± 0.68
48 | SCIKNSCGINYLVGQATFHN | 6.499 ± 0.049
49 | SCIYLNGSPVDEDGKYVHDF | inactive
50 | SCKFMIYNSVGAGSLGHVNR | 4.69 ± 0.094

Row | Substance | amyloid nucleation score
51 | SCLLTMSLE | 0.11 ± 0.43
52 | SCYIDYNFYSWQGSWYCFKI | inactive
53 | SCYTVYQLGLDVGRGVDLEF | -0.013 ± 0.58
54 | SDAMSTHQRVNRF | 0.369 ± 0.55
55 | SDEGN | 1.55 ± 0.53
56 | SDELWLLQFPVLNNKLWEK | 0.726 ± 1.1
57 | SDESKMCRMGYYLPALAIAW | -0.173 ± 0.82
58 | SDFGI | -0.647 ± 0.64
59 | SDKAMHCGCVLH | -0.891 ± 0.56
60 | SDLELTTLFF | -0.57 ± 0.37
61 | SDMDNTWLA | -0.797 ± 0.66
62 | SDYMCTKSSIKLNTYIDVKD | -1.6 ± 2.1
63 | SEAVCVRVQLAWDRLMGVRV | 0.966 ± 0.64
64 | SECLLYSWRVILSRLSPESE | 0.257 ± 0.62
65 | SEGCCYRKGCVTTRDSALSG | inactive
66 | SEGIPPQFFRYTAGASNLDT | 0.306 ± 0.64
67 | SEGMYSRMAIEWLSGE | 1.21 ± 0.69
68 | SEVCPSSIKR | -0.067 ± 0.49
69 | SEWSRKGVYNACLITG | -0.01 ± 0.48
70 | SEYETG | 0.101 ± 0.34
71 | SFAHHAFIGFILSSWWN | -1.06 ± 2.4
72 | SFCNFQGVRFFL | 1.73 ± 0.2
73 | SFDGLYLNSCRFSLPCLLSR | 0.196 ± 0.26
74 | SFFFKFYSDSFGNSTFQTID | -0.046 ± 0.31
75 | SFFLFRENFEMSNIRFRYVN | 0.995 ± 0.68

Row | Substance | amyloid nucleation score
76 | SFFLIIVQREKRVRTSGCL | 0.954 ± 0.8
77 | SFFWVYHRYSMPRSLCVM | inactive
78 | SFIIVYY | 1.84 ± 0.19
79 | SFKWVVRVWRCRILWNSGVS | 0.001 ± 0.78
80 | SFKYWNIRHKYFRTSLT | -0.152 ± 0.4
81 | SFLDMGFEAVNFGVVPSIMR | 0.479 ± 0.48
82 | SFLLGQGTL | 0.724 ± 0.69
83 | SFLWYIGFNSWRFCGRYTTL | 0.174 ± 0.5
84 | SFSHVYFYGVPYGQVPYRSV | 1.5 ± 0.28
85 | SFSSSSLYSLVCRYHSIRWA | 0.589 ± 0.28
86 | SFVSRGCSYCC | -0.489 ± 0.59
87 | SFYILTHTNFGTFPLFDDRH | -0.897 ± 0.69
88 | SFYVWDDSYCFVFGCTSVKC | -0.291 ± 0.47
89 | SGAPLDAGFNIA | 0.227 ± 0.49
90 | SGAYLKASYTSPSVRVFLVL | 2.75 ± 0.25
91 | SGDRAYFSKFSVCIPRDRVQ | -0.046 ± 0.67
92 | SGDWTYFIIMRWDLPFIICR | 0.265 ± 0.22
93 | SGFSGVRNHPRETQLCHGSA | -0.094 ± 0.33
94 | SGGELVVLIYMNMGASGWAP | -0.756 ± 0.56
95 | SGGSLVFVCYGRNF | -1.35 ± 1.1
96 | SGGYLADYPLRVNLLFFNFV | 0.431 ± 0.43
97 | SGIVLTG | -1.06 ± 2.1
98 | SGLGTNKRSTPWYHSRFEGQ | 0.036 ± 0.47
99 | SGMRRFRWLEVFSTDQRLEA | inactive
100 | SGQMSLWSYL | 0.781 ± 0.59

Row | Substance | amyloid nucleation score
101 | SGSSTVWCAYRMTGQPPGRT | 1.37 ± 0.51
102 | SGTIYWLTDQSDFILLVMRD | -1.26 ± 0.47
103 | SGTRELALGRFHTCCNQRGK | 0.442 ± 0.27
104 | SHLFQM | -0.034 ± 0.58
105 | SHLGVVCNRLVYERETNVST | -0.191 ± 0.29
106 | SHLMPGCEKFLHCVSFPDA | -0.45 ± 0.56
107 | SHLNHEGFRLIQCLIWSLHW | 0.33 ± 0.54
108 | SHMDHGRQRWCSN | 0.83 ± 0.88
109 | SHMMHSMAEVSFARYWDKQS | -2.46 ± 1.9
110 | SHRSFFCSSLWMNYYCLISS | inactive
111 | SHTTILTSWRSYKKMKASNA | 0.496 ± 0.43
112 | SHYTHVFLM | -0.468 ± 0.93
113 | SIANVSFW | 1.59 ± 0.18
114 | SIAYPRNIELRWDEIGGDML | 0.178 ± 0.54
115 | SIGFLYCPLMSCASNFKWSK | 4.55 ± 0.068
116 | SILEQILC | -0.324 ± 0.22
117 | SILIRLIISTINCCVNNVAF | 5.43 ± 0.083
118 | SINHNGPDQLKGVPFSCSCV | inactive
119 | SINSRKSFMFIF | 2.39 ± 0.16
120 | SINVL | -1.03 ± 0.55
121 | SINVPPHSGHELH | 1.12 ± 0.76
122 | SIPYSRRVF | 0.103 ± 0.41
123 | SIRSFMIVL | 3.49 ± 0.13
124 | SISWVWAAPIRAI | -1.59 ± 2.4
125 | SIWKRLYFQVNGL | 0.925 ± 0.92

Row | Substance | amyloid nucleation score
126 | SKCIWDFGYVSPWAISS | inactive
127 | SKDGCSCFDIDVAMEGLLMR | -0.053 ± 1.1
128 | SKFFQLFSVTILYAMDSGPC | -0.462 ± 0.7
129 | SKKIVGIFYKVCSRRLFMVC | 0.456 ± 0.6
130 | SKLLNVDLTPCRSRTTLFVC | 1.29 ± 0.47
131 | SKNAWRVKNKSEFAV | 0.488 ± 0.69
132 | SKQFQASFHRVYSSVFSGWH | 0.669 ± 0.38
133 | SKSDQSWYFL | -0.227 ± 0.68
134 | SKSYFSIV | -0.361 ± 0.39
135 | SKWYSDQT | inactive
136 | SKYGAYGRMVSSNLDT | -0.204 ± 0.84
137 | SKYVYSF | 1.2 ± 0.13
138 | SLCRGATGGDGWWGVCSSA | 0.614 ± 0.91
139 | SLDDPFRENCLLESFSLMLS | -0.552 ± 1.9
140 | SLDYVSQFIQLLRFFKFYMV | inactive
141 | SLECLALTFVGYVTGRLMDL | -1.02 ± 1.7
142 | SLEDLWTRVERIRASEPVLG | -0.293 ± 0.92
143 | SLFMSYLCRLVHRLLSRKIG | -0.172 ± 0.28
144 | SLGPFRDVSCYVVAGIQTVN | -1.66 ± 2.7
145 | SLGVDYDTGSVVYVAGCNCR | 0.009 ± 0.46
146 | SLIMIGIFFYFSLSKQPRSV | 0.027 ± 1.7
147 | SLKMMIFQRGFYTSIG | 1.75 ± 0.13
148 | SLLCCVLVFSFCFSPFRSSE | 1.52 ± 0.16
149 | SLLIELSFRTGNSEY | 0.152 ± 0.5
150 | SLLMRIS | -0.434 ± 0.61

Row | Substance | amyloid nucleation score
151 | SLLSYMFQGDDVKCHGSAVL | 1.01 ± 0.76
152 | SLMDKMPTIVLELVYHAVQI | 0.018 ± 0.49
153 | SLNRWGVFLCEVALRLADGR | 0.542 ± 0.85
154 | SLNSPL | 0.391 ± 0.85
155 | SLSFVVSGMRFAFAGFFMVS | -0.055 ± 0.21
156 | SLSPWWIHANPWWPYMSNQV | inactive
157 | SLSTGIAFINLAACVYSKLT | 2.85 ± 0.18
158 | SLVAGVVFVFMYRVPKIGLV | -0.807 ± 1.2
159 | SLWNDFHMVAVYLVTLSSVD | 0.895 ± 0.79
160 | SLWNSCSSE | 4.68 ± 0.064
161 | SLYFFLFRCVCKRLYSGWNV | -0.481 ± 1
162 | SLYVKWSQILLPLVLYVWYY | 0.232 ± 0.45
163 | SMEIYLDFMNVCSKMVNASG | -0.093 ± 0.3
164 | SMFKGTIWRQHSLS | 0.618 ± 0.85
165 | SMGLKPGEVCLNKDFDSH | 0.036 ± 1.2
166 | SMKCRNGILWFQRLVYLLLS | -0.747 ± 0.56
167 | SMLLSRKHCGGVNEKHFM | -0.311 ± 0.35
168 | SMMEAFDPKYAVSWSVESLT | 1.26 ± 0.67
169 | SMRSNWPGYCTRNGFTLSLL | -0.684 ± 0.32
170 | SMSPVSSVTN | 0.07 ± 0.35
171 | SMVKRSSVVYGLSRGSIKER | 1.08 ± 0.69
